Measurements: US20250215097A1 (BEIJING TIANNUOJIANCHENG PHARMA TECH, published 2025)

Tests used:
[1] = target: T1, human CCR8 (human, UniProt P51685 1-355); experiment: cell-based or functional assay
[2] = target: T1, human CCR8; experiment: cell-based or functional assay; remark: listed apart in the source
[3] = target: T1, human CCR8; experiment: flow cytometry, purified Fab on CHO-hCCR8 cells
[4] = target: T2, human CCR4 (human, UniProt P51679 1-360); experiment: flow cytometry of purified Fab on cells stably expressing human CCR4
T2 construct: also called hCCR4; human CCR4+ cells
T2 sequence: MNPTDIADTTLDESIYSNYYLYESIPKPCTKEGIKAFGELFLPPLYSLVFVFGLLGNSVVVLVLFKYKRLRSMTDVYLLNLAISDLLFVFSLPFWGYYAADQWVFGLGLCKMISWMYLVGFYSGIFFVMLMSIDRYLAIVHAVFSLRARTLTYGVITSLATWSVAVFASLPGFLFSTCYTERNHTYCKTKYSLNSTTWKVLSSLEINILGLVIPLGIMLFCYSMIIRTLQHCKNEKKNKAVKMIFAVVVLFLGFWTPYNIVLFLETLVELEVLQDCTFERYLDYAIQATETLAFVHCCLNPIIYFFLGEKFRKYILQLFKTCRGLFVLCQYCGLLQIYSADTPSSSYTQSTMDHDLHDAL
Protocol: The positive clones obtained in example 1 were re-induced to express and purified to obtain a Fab antibody. The binding to cells stably expressing human CCR8, cynomolgus monkey CCR8 and human CCR4 was tested respectively, 5×10⁴ test cells were added to each well of a 96-well U-shaped plate and centrifuged to discard the supernatant, 100 μL/well of the purified Fab antibody was added and the mixture was incubated on ice for 60 minutes. After washing away the unbound primary antibody, 50 μL of a secondary antibody solution (Anti-human IgG, F(ab′)2-AF647, Jackson Immuno Research) was added to each well and the mixture was incubated on ice for 30 minutes. After washing, 50 μL of a PI/BSA solution at 5 μg/mL was added to each well and the mixture was incubated on ice for 5 minutes. Then excess secondary antibody was washed away with 0.5% BSA, the cells were resuspended by adding a PBS solution, and binding of the antibody to the cells was detected using a flow cytometer (Intellicyte iQue).

[5] = target: T1, human CCR8; experiment: cell-based or functional assay; remark: listed apart in the source
[6] = target: T3, cynomolgus monkey CCR8 (cynomolgus monkey, UniProt O97665 1-356 (rhesus entry)); experiment: flow cytometry, chimeric IgG on CHO-cynoCCR8 cells
T3 construct: Full-length, stably expressed on CHO cells; also called cynoCCR8; CHO-cynoCCR8
T3 sequence (O97665 other isoform, or with tags, fused parts or gaps): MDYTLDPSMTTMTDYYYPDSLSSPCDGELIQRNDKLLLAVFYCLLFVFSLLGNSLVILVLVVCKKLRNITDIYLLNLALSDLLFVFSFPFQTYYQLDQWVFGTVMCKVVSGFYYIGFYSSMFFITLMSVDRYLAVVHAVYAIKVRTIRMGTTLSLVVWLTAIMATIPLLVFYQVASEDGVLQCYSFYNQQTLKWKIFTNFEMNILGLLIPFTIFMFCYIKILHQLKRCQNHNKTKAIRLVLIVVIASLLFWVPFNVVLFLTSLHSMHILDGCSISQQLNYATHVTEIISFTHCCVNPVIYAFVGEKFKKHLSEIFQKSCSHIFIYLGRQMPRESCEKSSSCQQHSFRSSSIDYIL
Protocol: (§1) 5×10⁴ CHO-hCCR8 or CHO-cynoCCR8 cells were added per well in a 96-well U-shaped plate and centrifuged to discard the supernatant, 100 μL of a gradiently diluted anti-CCR8 chimeric antibody or anti-KLH isotype control antibody was added per well and the mixture was incubated on ice for 60 minutes. After the unbound primary antibody was washed away, 50 μL of a secondary antibody AlexaFluro647 anti-human IgG (Jackson Immuno Research #109-606-170) was added per well and the mixture was incubated on ice for 30 minutes. After the washing, 50 μL of 5 μg/mL of a PI/BSA solution was added to each well and the mixture was incubated on ice for 5 minutes. Then excess secondary antibody was washed away with 0.5% BSA, the cells were resuspended by adding a PBS solution, and binding of the antibody to the cells was detected using a flow cytometer (Intellicyte iQue). The fluorescence value of a Pi-negative cell population was analyzed. Cell-binding curves were fitted by Graphpad Prism 7 (FIG. 2). The chimeric antibodies of 87D8, 102H5, 109F6, 110G2, 113B3, 139A9, 144D2, etc. all bound with high affinities to human CCR8+ cells CHO-hCCR8 and cynomolgus monkey CCR8+ cells CHO-cynoCCR8.

[7] = target: T1, human CCR8; experiment: flow cytometry, chimeric IgG on CHO-hCCR8 cells
Protocol: as §1

T1 sequence (P51685 whole entry): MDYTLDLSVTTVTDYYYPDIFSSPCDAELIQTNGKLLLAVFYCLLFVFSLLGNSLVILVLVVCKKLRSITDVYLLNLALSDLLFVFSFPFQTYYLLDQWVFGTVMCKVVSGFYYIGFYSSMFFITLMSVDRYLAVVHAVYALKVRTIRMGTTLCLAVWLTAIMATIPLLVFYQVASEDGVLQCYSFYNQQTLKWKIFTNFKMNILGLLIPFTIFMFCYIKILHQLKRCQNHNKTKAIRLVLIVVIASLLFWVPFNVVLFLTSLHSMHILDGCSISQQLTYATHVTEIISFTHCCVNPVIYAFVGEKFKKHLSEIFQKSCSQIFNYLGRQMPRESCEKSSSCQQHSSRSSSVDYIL

B1: h87D8 H1K1 hIgG1 e5 (antibody, V domains shown)
VH: EVQLVESGGGLVQPGGSLRLSCAASGFTFNTYAMNWVRQAPGKGLEWVARIRSKSNNYATYYADSVKGRFTISRDDSQSSLYLQMNSLRAEDTAVYYCVRGKEAGAYYAMDYWGQGTLVTVSS
VL: DIVMTQSPLSLPVTPGEPASISCRSSKSLLHSNGNTYLYWFLQKPGQSPQLLIYRMSNLASGVPDRFSGSGSGTDFTLKISRVEAEDVGVYYCMQHLEYPLTFGQGTKLEIKR
B1 was tested, and the “ADCC maximal lysis rate, NK92-CD16A effectors, HEK293-hCCR8 targets” value [1] was 58%, the “half-maximal effective concentration EC50 of inhibition of the Ca2+ current signal, CHO-hCCR8 cells, CCL1 stimulus” value [1] was 5.59 nM and the “ADCC EC50 (nM), PBMC FcγRIIIA158F/F effectors, HEK293-hCCR8 targets” value [2] was 0.01 nM. For the same binder, the “ADCC EC50 (nM), PBMC FcγRIIIA158V/V effectors, HEK293-hCCR8 targets” value [2] was 0.01 nM, the “ADCC maximal lysis rate, PBMC FcγRIIIA158F/F effectors, HEK293-hCCR8 targets” value [2] was 70% and the “ADCC maximal lysis rate, PBMC FcγRIIIA158V/V effectors, HEK293-hCCR8 targets” value [2] was 72%.

B2: 144D2 Fab antibody (Fab, V domains shown)
VH: EVQLVESGGGLVQPKGSLKLSCAASGFTFNAFAMNWVRQAPGKGLEWVARIRSKSNNYATYYADSVIDRFTISRDDSQSMLYLQMNNLKTEDTAMYYCVRGKEAGAYYAMDYWGQGTSVTVSS
VL: DIVMTQAAPSVPVTPGESVSISCRSSKSLLHSNGNTYLYWFLQRPGQSPQLLIYRMSNLASGVPDRFSGSGSGTAFTLRISRVEAEDVGVYYCMQHLEYPLTFGAGTKLEIK
notes: also called clone 144D2; 144D2 (female parent)
With B2 the EC50 [3] was 2.8 nM and the binding result [4] was “no binding”.

B3: 102H5 anti-CCR8 chimeric antibody (antibody, V domains shown)
VH: QVQLVESNGRLVQPKGSLKLSCAASGFTFNAYAMNWVRQAPGKGLEWVARIRSKSNNYATYYADSVKDRFTISRDDSQNMLYLQMNNLKTEDTAMYFCVRQKFGARGYYALDFWGQGATVTVSS
VL: DIVLTQSPASLAVSLGQRATISCRASESVEYYGTSLMQWYQQKPGQPPKLLIYAASNVESGVPARFSGSGSGTDFSLNIHPVEEDDIAMYFCQQSRKVPYTFGGGTKLEIK
For B3, the “ADCC EC50 (nM), NK92-CD16A effectors, HEK293-hCCR8 targets, LDH release” value (from here on “ADCC EC50 (nM), NK92-CD16A effectors”) [5] was 0.06 nM, the EC50 [6] was 1.18 nM and the EC50 [7] was 0.46 nM.

B4: 110G2 Fab antibody (Fab, V domains shown)
VH: QVQLVESNGRLVQPKGSLKLSCAASGFTFNAYAMNWVRQAPGKGLEWVARIRSKSNNYATYYADSVKDRFTISRDDSQSMLYLQMNNLKTEDTAMYFCVRQKFGARGYYALDFWGQGASVTVSS
VL: EILLTQSPAIMSASPGEKVTMTCRASSSVSSSYLHWYQQKSGASPKLWIYSTSNLASGVPARFSGSGSGTSYSLTISSVEAEDAATYYCQQYSGYPYTFGGGTKLEIK
notes: also called clone 110G2
B4: no binding [4].

B5: 116F10 Fab antibody (Fab, V domains shown)
VH: EVQLVESYGGLVQPKGSLKLSCAASGFTFNAYAMNWVRQAPGKGLEWVARIRSKSNNYATYYADSVKDRFTISRDDSQNILYLQMNNLKIEDTAMYFCVRQKFGSRGYYALDFWGQGASVTVSS
VL: EIVLTQSPAIMSVSPGEKVTMTCRASSSVSSSYLHWYQQKSGASPKLWIYSTSTLASGVPARFSGSGSGTSYSLTISSVEAEDAATYYCQHYTVYPLGTFGGGTKLEIK
notes: also called clone 116F10
B5: no binding [4].

B6: 139A9 Fab antibody (Fab, V domains shown)
VH: QVQLVESNGRLVQPKGSLKLSCAASGFTFNAYAMNWVRQAPGKGLEWVARIRSKSNNYATYYADSVKDRFTISRDDSQSMLYLQMNNLKTEDTAMYFCVRQKFGARGYYALDFWGQGASVTVSS
VL: ENVLTQSPTTMAASPGEKITITCSASSSISSNYLHWYQQKPGFSPKLLIYRTSNLASGVPARFSGSGSGTSYSLTIGTMEAEDVATYYCQQGSSIPLTFGAGTKLELK
notes: also called clone 139A9
B6: no binding [4].

B7: 109F6 anti-CCR8 chimeric antibody (antibody, V domains shown)
VH: QVQLVESNGRLVQPKGSLKLSCAASGFTFNAYAMNWVRQAPGKGLEWVARIRSKSNNYATYYADSVKDRFTISRDDSQSMLYLQMNNLKTEDTAMYFCVRQKFGARGYYALDFWGQGASVTVSS
VL: DIVLTQSPASLAVSLGQRATISCRASKSVSTSGYSYMHWYQQKPGQPPKLLIYLASNLESGVPARFSGSGSGTDFTLNIHPVEEEDAATYYCQHSRELPPTFGGGTKLEIK
In the case of B7, the “ADCC EC50 (nM), NK92-CD16A effectors” value [5] is reported as 0.07 nM, the EC50 [6] is reported as 0.74 nM and the EC50 [7] is reported as 0.2 nM.

B8: 102H5 Fab antibody (Fab, V domains shown)
VH: QVQLVESNGRLVQPKGSLKLSCAASGFTFNAYAMNWVRQAPGKGLEWVARIRSKSNNYATYYADSVKDRFTISRDDSQNMLYLQMNNLKTEDTAMYFCVRQKFGARGYYALDFWGQGATVTVSS
VL: DIVLTQSPASLAVSLGQRATISCRASESVEYYGTSLMQWYQQKPGQPPKLLIYAASNVESGVPARFSGSGSGTDFSLNIHPVEEDDIAMYFCQQSRKVPYTFGGGTKLEIK
notes: also called clone 102H5
B8: no binding [4].

B9: 113B3 anti-CCR8 chimeric antibody (antibody, V domains shown)
VH: EVQLVESNGGLVQPKGSLKLSCAASGFTFNAYAMNWVRQAPGKGLEWVARIRSKSNNYATYYADSVKDRFTISRDDSQSMLYLQMNNLKTEDTAMYFCVRQKFGSRGYYALDFWGQGATVTVSS
VL: QIVLTQSPAIMSASLGERVTMTCTASSSVSSSYLHWYQQKPGSSPKLWIYSTSNLASGVPARFSGSGSGTSYSLTISSMEAEDAATYYCHQYHRSPRTFGGGTRLEIK
In the case of B9, the “ADCC EC50 (nM), NK92-CD16A effectors” value [5] is reported as 0.04 nM, the EC50 [6] is reported as 1.99 nM and the EC50 [7] is reported as 0.4 nM.

B10: 110G2 anti-CCR8 chimeric antibody (antibody, V domains shown)
VH: QVQLVESNGRLVQPKGSLKLSCAASGFTFNAYAMNWVRQAPGKGLEWVARIRSKSNNYATYYADSVKDRFTISRDDSQSMLYLQMNNLKTEDTAMYFCVRQKFGARGYYALDFWGQGASVTVSS
VL: EILLTQSPAIMSASPGEKVTMTCRASSSVSSSYLHWYQQKSGASPKLWIYSTSNLASGVPARFSGSGSGTSYSLTISSVEAEDAATYYCQQYSGYPYTFGGGTKLEIK
In the case of B10, the “ADCC EC50 (nM), NK92-CD16A effectors” value [5] is reported as 0.04 nM, the EC50 [6] is reported as 1.26 nM and the EC50 [7] is reported as 0.45 nM.

B11: 109F6 Fab antibody (Fab, V domains shown)
VH: QVQLVESNGRLVQPKGSLKLSCAASGFTFNAYAMNWVRQAPGKGLEWVARIRSKSNNYATYYADSVKDRFTISRDDSQSMLYLQMNNLKTEDTAMYFCVRQKFGARGYYALDFWGQGASVTVSS
VL: DIVLTQSPASLAVSLGQRATISCRASKSVSTSGYSYMHWYQQKPGQPPKLLIYLASNLESGVPARFSGSGSGTDFTLNIHPVEEEDAATYYCQHSRELPPTFGGGTKLEIK
notes: also called clone 109F6
B11: no binding [4].

B12: 113B3 Fab antibody (Fab, V domains shown)
VH: EVQLVESNGGLVQPKGSLKLSCAASGFTFNAYAMNWVRQAPGKGLEWVARIRSKSNNYATYYADSVKDRFTISRDDSQSMLYLQMNNLKTEDTAMYFCVRQKFGSRGYYALDFWGQGATVTVSS
VL: QIVLTQSPAIMSASLGERVTMTCTASSSVSSSYLHWYQQKPGSSPKLWIYSTSNLASGVPARFSGSGSGTSYSLTISSMEAEDAATYYCHQYHRSPRTFGGGTRLEIK
notes: also called clone 113B3
B12: no binding [4].

B13: 139A9 anti-CCR8 chimeric antibody (antibody, V domains shown)
VH: QVQLVESNGRLVQPKGSLKLSCAASGFTFNAYAMNWVRQAPGKGLEWVARIRSKSNNYATYYADSVKDRFTISRDDSQSMLYLQMNNLKTEDTAMYFCVRQKFGARGYYALDFWGQGASVTVSS
VL: ENVLTQSPTTMAASPGEKITITCSASSSISSNYLHWYQQKPGFSPKLLIYRTSNLASGVPARFSGSGSGTSYSLTIGTMEAEDVATYYCQQGSSIPLTFGAGTKLELK
In the case of B13, the “ADCC EC50 (nM), NK92-CD16A effectors” value [5] is reported as 0.06 nM, the EC50 [6] is reported as 1.99 nM and the EC50 [7] is reported as 0.49 nM.

B14: 116F10 anti-CCR8 chimeric antibody (antibody, V domains shown)
VH: EVQLVESYGGLVQPKGSLKLSCAASGFTFNAYAMNWVRQAPGKGLEWVARIRSKSNNYATYYADSVKDRFTISRDDSQNILYLQMNNLKIEDTAMYFCVRQKFGSRGYYALDFWGQGASVTVSS
VL: EIVLTQSPAIMSVSPGEKVTMTCRASSSVSSSYLHWYQQKSGASPKLWIYSTSTLASGVPARFSGSGSGTSYSLTISSVEAEDAATYYCQHYTVYPLGTFGGGTKLEIK
In the case of B14, the “ADCC EC50 (nM), NK92-CD16A effectors” value [5] is reported as 0.1 nM, the EC50 [6] is reported as 1.25 nM and the EC50 [7] is reported as 0.58 nM.
